Experimental data reported in publication PMC3433420.
“And” between values parts separate entries of the source, which are not always exact repeats. Identical values can stand only once. Like-named read-outs stand apart in the source and are kept apart here. Each block holds one substance with its values, some of them ahead of it.

Columns and labels:
[1] = molecular target: SH2D1A SH2 domain (human) (UniProt O60880); assay: peptide or protein array; SH2/PTB proteins spotted on aldehyde slides, rhodamine peptide titrated in buffer B (20 mM HEPES, 100 mM KCl, 0.1% Tween-20, 5 mM DTT, pH 7.8), 1 h at room temperature; replicate assays
Chain of SH2D1A SH2 domain (human) (O60880 6-104): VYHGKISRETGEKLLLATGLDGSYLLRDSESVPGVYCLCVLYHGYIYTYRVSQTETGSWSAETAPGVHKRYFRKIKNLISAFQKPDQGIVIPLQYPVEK

[2] = molecular target: PIK3R3 tandem SH2 domains (human); assay: as above
[3] = molecular target: RASA1 tandem SH2 domains (human); assay: as above
[4] = molecular target: ABL2 SH2 domain (human) (UniProt P42684); assay: as above
Chain of ABL2 SH2 domain (human) (P42684 173-263): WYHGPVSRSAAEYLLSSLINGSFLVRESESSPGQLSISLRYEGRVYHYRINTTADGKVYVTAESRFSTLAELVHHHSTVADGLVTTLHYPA

[5] = molecular target: PLCG2 tandem SH2 domains (human); assay: as above
[6] = molecular target: ITK SH2 domain (human) (UniProt Q08881); assay: as above
[7] = molecular target: NCK2 SH2 domain (human) (UniProt O43639); assay: as above
[8] = molecular target: PIK3R2 tandem SH2 domains (human) (UniProt O00459); assay: as above
[9] = molecular target: VAV2 SH2 domain (human) (UniProt P52735); assay: as above
Chain of VAV2 SH2 domain (human) (P52735 673-767): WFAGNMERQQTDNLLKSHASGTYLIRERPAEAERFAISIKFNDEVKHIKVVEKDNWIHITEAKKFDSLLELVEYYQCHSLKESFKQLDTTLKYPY

[10] = molecular target: PIK3R1 tandem SH2 domains (human) (UniProt P27986); assay: as above
Chain of PIK3R1 tandem SH2 domains (human) (P27986 whole entry, the tested form may be a part): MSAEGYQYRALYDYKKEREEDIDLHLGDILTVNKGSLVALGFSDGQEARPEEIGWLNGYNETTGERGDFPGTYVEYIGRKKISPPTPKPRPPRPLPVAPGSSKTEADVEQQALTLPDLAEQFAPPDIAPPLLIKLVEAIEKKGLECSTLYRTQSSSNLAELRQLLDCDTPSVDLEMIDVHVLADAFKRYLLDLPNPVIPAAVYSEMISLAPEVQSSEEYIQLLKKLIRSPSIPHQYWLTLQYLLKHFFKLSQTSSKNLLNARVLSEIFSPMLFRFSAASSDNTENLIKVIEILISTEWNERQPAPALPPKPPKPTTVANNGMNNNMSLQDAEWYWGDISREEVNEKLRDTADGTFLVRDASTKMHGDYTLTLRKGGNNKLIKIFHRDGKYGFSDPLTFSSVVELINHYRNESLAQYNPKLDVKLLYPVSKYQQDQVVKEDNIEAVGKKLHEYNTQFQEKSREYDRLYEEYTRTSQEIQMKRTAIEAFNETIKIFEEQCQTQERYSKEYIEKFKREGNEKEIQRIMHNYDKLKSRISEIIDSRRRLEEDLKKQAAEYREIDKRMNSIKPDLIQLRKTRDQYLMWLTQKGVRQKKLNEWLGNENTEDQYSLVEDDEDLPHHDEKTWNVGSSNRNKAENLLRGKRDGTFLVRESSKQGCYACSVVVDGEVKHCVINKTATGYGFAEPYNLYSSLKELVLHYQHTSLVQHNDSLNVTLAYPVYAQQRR

[11] = molecular target: PLCG1 C-terminal SH2 domain (human); assay: as above
[12] = molecular target: SRC SH2 domain (human) (UniProt P12931); assay: as above
[13] = molecular target: SHF SH2 domain (human) (UniProt Q7M4L6); assay: as above
[14] = molecular target: SH2D3A SH2 domain (human) (UniProt Q9BRG2); assay: as above
Chain of SH2D3A SH2 domain (human) (Q9BRG2 15-114): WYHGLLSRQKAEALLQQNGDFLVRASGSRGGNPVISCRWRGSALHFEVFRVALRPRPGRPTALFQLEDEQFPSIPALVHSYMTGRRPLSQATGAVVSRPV

[15] = molecular target: RASA1 N-terminal SH2 domain (human) (UniProt P20936); assay: as above
[16] = molecular target: HSH2D SH2 domain (human) (UniProt Q96JZ2); assay: as above
Chain of HSH2D SH2 domain (human) (Q96JZ2 34-125): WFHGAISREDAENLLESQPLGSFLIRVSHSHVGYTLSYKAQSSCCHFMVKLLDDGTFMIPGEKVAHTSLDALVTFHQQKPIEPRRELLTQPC

[17] = molecular target: ErbB3-pY1197 phosphopeptide, rhodamine-labelled (human); assay: fluorescence polarisation; saturation binding in solution; rhodamine-labeled peptide fixed at 10 nM, protein titrated 0.002-10 µM (twelve two-fold dilutions); 20 minutes at room temperature in the dark; assay buffer 20 mM HEPES, 100 mM KCl, 0.1% Tween-20, 5 mM DTT, pH 7.8; apparent KD; assay detection threshold of 20 µM
[18] = molecular target: ErbB3-pY1260 phosphopeptide, rhodamine-labelled (human); assay: as above
[19] = molecular target: SHC1-PTB (Homo sapiens) (UniProt P29353); settings: cited from earlier work
Chain of SHC1-PTB (Homo sapiens) (P29353 483-583): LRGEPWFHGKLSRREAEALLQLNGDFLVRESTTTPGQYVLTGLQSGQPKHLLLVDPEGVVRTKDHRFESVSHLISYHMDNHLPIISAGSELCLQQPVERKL

[20] = molecular target: PIK3R3-NC (Homo sapiens) (UniProt Q92569); settings: cited from earlier work
[21] = molecular target: SHC1-PTB (Homo sapiens) (UniProt P29353); settings: cited from earlier work; remark: listed apart in the source
[22] = molecular target: RASA1-NC (Homo sapiens) (UniProt P20936); settings: cited from earlier work
Chain of RASA1-NC (Homo sapiens) (P20936 176-446): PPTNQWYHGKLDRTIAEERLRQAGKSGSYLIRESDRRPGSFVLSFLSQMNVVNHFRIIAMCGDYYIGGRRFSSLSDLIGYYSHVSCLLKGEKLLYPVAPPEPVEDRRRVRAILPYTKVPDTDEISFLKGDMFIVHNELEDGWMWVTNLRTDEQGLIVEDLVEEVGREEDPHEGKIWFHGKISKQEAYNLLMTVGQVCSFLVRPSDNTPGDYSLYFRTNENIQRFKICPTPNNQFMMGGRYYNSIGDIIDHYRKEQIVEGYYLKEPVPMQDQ

[23] = molecular target: GRB2 (Homo sapiens) (UniProt P62993); settings: cited from earlier work
Chain of GRB2 (Homo sapiens) (P62993 55-157): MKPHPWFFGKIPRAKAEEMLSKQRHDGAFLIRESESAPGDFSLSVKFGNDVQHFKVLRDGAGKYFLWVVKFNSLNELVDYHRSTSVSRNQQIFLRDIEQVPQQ

[24] = molecular target: PIK3R2-N (Homo sapiens) (UniProt O00459); settings: cited from earlier work
Chain of PIK3R2-N (Homo sapiens) (O00459 325-721): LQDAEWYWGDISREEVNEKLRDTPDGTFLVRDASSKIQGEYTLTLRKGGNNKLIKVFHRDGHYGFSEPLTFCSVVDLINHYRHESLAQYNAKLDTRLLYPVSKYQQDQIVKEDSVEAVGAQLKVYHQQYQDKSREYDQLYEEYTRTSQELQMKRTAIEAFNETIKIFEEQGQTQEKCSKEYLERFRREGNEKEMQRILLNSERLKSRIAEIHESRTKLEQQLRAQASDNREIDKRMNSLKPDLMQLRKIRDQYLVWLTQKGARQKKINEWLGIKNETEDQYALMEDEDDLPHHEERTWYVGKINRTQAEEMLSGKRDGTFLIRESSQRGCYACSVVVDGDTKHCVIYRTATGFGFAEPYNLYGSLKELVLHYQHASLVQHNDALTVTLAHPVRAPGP

[25] = molecular target: SHC1 (Homo sapiens) (UniProt P29353); settings: cited from earlier work
Chain of SHC1 (Homo sapiens) (P29353 483-583): as the sequence (P29353 483-583) above

[26] = molecular target: PIK3R1-NC (Homo sapiens) (UniProt P27986); settings: cited from earlier work
Chain of PIK3R1-NC (Homo sapiens) (P27986 328-723): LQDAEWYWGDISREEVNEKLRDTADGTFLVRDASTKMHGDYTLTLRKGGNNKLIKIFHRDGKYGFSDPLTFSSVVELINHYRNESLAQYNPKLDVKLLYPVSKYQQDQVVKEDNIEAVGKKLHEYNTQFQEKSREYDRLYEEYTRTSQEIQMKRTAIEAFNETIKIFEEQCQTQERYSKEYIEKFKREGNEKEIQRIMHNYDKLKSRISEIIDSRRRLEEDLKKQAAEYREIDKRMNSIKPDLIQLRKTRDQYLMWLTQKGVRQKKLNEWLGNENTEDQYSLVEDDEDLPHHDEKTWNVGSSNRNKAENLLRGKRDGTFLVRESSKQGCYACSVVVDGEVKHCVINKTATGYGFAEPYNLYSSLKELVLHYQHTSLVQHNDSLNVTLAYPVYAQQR

[27] = molecular target: YES1 (Homo sapiens) (UniProt P07947); settings: cited from earlier work
[28] = molecular target: GRB7 (Homo sapiens) (UniProt Q14451); settings: cited from earlier work
Chain of GRB7 (Homo sapiens) (Q14451 426-532): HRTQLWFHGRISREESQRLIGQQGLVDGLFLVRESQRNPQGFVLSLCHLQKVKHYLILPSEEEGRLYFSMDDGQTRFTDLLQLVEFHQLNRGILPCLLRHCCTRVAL

[29] = molecular target: PIK3R1-N (Homo sapiens) (UniProt P27986); settings: cited from earlier work
Chain of PIK3R1-N (Homo sapiens) (P27986 328-723): as the sequence (P27986 328-723) above

[30] = molecular target: CRK (Homo sapiens) (UniProt P46108); settings: cited from earlier work
Chain of CRK (Homo sapiens) (P46108 8-123): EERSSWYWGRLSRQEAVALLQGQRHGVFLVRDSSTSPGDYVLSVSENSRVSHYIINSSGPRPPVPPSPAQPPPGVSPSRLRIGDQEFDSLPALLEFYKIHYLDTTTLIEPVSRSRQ

[31] = molecular target: RASA1-N (Homo sapiens) (UniProt P20936); settings: cited from earlier work
Chain of RASA1-N (Homo sapiens) (P20936 176-446): as the sequence (P20936 176-446) above

[32] = molecular target: LYN (Homo sapiens) (UniProt P07948); settings: cited from earlier work
[33] = molecular target: PIK3R3-NC (Homo sapiens) (UniProt Q92569); settings: cited from earlier work; remark: listed apart in the source
[34] = molecular target: SYK-NC (Homo sapiens) (UniProt P43405); settings: cited from earlier work
[35] = molecular target: SRC (Homo sapiens) (UniProt P12931); settings: cited from earlier work
[36] = molecular target: BLK (Homo sapiens) (UniProt P51451); settings: cited from earlier work
Chain of BLK (Homo sapiens) (P51451 119-225): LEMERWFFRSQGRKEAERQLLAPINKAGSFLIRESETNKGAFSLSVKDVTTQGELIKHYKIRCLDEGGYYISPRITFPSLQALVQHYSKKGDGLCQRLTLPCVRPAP

[37] = molecular target: TEC (Homo sapiens) (UniProt P42680); settings: cited from earlier work
Chain of TEC (Homo sapiens) (P42680 242-350): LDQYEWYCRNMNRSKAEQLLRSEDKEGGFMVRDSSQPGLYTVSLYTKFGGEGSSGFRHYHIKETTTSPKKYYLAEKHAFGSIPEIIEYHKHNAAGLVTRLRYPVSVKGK

[38] = molecular target: SYK-N (Homo sapiens) (UniProt P43405); settings: cited from earlier work
[39] = molecular target: CRKL (Homo sapiens) (UniProt P46109); settings: cited from earlier work
Chain of CRKL (Homo sapiens) (P46109 9-107): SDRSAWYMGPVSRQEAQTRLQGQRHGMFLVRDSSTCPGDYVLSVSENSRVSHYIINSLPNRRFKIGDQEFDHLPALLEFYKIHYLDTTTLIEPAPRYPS

[40] = molecular target: PLCG2-NC (Homo sapiens) (UniProt P16885); settings: cited from earlier work
[41] = molecular target: FGR (Homo sapiens) (UniProt P09769); settings: cited from earlier work
[42] = molecular target: ABL2 (Homo sapiens) (UniProt P42684); settings: cited from earlier work
Chain of ABL2 (Homo sapiens) (P42684 168-268): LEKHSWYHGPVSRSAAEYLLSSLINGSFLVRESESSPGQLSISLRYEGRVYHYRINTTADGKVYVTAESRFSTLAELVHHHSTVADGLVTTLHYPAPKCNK

[43] = molecular target: SHC3 (Homo sapiens) (UniProt Q92529); settings: cited from earlier work
Chain of SHC3 (Homo sapiens) (Q92529 494-594): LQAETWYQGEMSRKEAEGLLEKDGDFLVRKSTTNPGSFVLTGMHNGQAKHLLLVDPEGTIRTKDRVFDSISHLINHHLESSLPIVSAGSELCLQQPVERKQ

[44] = molecular target: ITK (Homo sapiens) (UniProt Q08881); settings: cited from earlier work
Chain of ITK (Homo sapiens) (Q08881 234-343): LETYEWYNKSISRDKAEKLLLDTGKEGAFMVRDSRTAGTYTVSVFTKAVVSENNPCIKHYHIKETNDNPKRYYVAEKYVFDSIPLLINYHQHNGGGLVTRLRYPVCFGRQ

Chain of GRB7 SH2 domain (Q14451 431-527): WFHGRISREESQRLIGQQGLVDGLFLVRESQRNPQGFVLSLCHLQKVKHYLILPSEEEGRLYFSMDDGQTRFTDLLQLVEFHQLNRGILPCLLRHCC

- Kd [1]: 30900 nM
- Kd [2]: 1720 nM and 1180 nM
- Kd [3]: 8560 nM
- Kd [4]: 997 nM and 965 nM
- Kd [5]: 408 nM and 605 nM and 1530 nM
- Kd [6]: 723 nM
- Kd [7]: 10100 nM
- Kd [8]: 653 nM
- Kd [9]: 9500 nM
- Kd [10]: 167 nM and 544 nM
- Kd [11]: 1260 nM
- Kd [12]: 399 nM
- Kd [13]: 11900 nM
- Kd [14]: 1000 nM
- Kd [15]: 662 nM
- Kd [16]: 967 nM
Substance: ErbB4 pY1202 phosphopeptide (18-mer), rhodamine-labelled, for protein microarrays

- Kd [17]: < 100 nM
- Kd [18]: < 100 nM
Substance: GRB7 SH2 domain (from UniProt Q14451 431-527) (domain or fragment)

Substance: …pYLRVAPQSd
- apparent Kd (screen) [19]: 317 nM
- apparent Kd (screen) [20]: 805 nM
- apparent Kd (screen) [21]: 337 nM
- apparent Kd (screen) [22]: 500 nM
- apparent Kd (screen) [23]: 415 nM
- apparent Kd (screen) [24]: 500 nM
- apparent Kd (screen) [25]: 777 nM
- apparent Kd (screen) [26]: 500 nM
- apparent Kd (screen) [27]: 127 nM
- apparent Kd (screen) [28]: 500 nM
- apparent Kd (screen) [29]: 500 nM
- apparent Kd (screen) [30]: 1070 nM
- apparent Kd (screen) [31]: 708 nM
- apparent Kd (screen) [32]: 171 nM
- apparent Kd (screen) [33]: 1110 nM
- apparent Kd (screen) [34]: 380 nM
- apparent Kd (screen) [35]: 381 nM
- apparent Kd (screen) [36]: 500 nM
- apparent Kd (screen) [37]: 480 nM
- apparent Kd (screen) [38]: 294 nM
- apparent Kd (screen) [39]: 1340 nM
- apparent Kd (screen) [40]: 500 nM
- apparent Kd (screen) [41]: 618 nM
- apparent Kd (screen) [42]: 214 nM
- apparent Kd (screen) [43]: 1030 nM
- apparent Kd (screen) [44]: 500 nM
